# Test results as given in publication PMC4192059 (Molecular microbiology, 2014).
# T1: PPE41 (M. tuberculosis), chain of the crystallized complex (M. tuberculosis, UniProt Q79FE1 1-194)
# T1 sequence: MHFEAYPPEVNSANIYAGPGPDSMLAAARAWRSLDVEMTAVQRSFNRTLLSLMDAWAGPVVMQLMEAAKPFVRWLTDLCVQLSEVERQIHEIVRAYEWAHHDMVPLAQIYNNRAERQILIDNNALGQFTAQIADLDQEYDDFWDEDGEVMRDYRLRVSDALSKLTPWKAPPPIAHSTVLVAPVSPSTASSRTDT
# B1: PE25 (M. tuberculosis), chain of the crystallized complex (natural protein)
# chain: MSFVITNPEALTVAATEVRRIRDRAIQSDAQVAPMTTAVRPPAADLVSEKAATFLVEYARKYRQTIAAAAVVLEEFAHALTTGADKYATAEADNIKTFS
# Biological target: T1, PPE41 (M. tuberculosis), chain of the …
# Test: crystal structure
binder,measurement,value
B1,binding result,binds
